Laboratory results published in patent publication US20130196348A1 (ACTELION PHARMACEUTICALS, published 2013).

T1: human GALR2 (Galanin Receptor 2) (human, UniProt O43603 1-387)
T1 sequence: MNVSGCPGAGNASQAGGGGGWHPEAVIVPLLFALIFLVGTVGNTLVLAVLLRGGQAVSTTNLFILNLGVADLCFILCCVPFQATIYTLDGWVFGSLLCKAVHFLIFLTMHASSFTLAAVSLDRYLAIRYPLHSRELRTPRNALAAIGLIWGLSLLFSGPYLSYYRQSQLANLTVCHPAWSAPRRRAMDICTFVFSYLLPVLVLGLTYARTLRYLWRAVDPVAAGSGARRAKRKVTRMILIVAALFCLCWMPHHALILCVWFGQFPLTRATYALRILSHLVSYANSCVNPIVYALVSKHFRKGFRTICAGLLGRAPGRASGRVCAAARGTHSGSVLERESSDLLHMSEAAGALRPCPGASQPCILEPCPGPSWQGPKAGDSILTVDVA


Target: T1, human GALR2 (Galanin Receptor 2)
Experiment: cell-based or functional assay

| Binder | FLIPR EC50 [nM] | Aequorin EC50 [nM] |
| --- | --- | --- |
| NWTPQAMLYLKGAAG [NWTPQAMLYLKGAAG (SEQ ID NO: 31)] | 0.1 |  |
| NWTPQAMLYLKGAQP [NWTPQAMLYLKGAQP (SEQ ID NO: 41)] | 0.3 |  |
| NWTPQAMLYLKGAQGRRFISDQS [human pro Neuropeptide Q (36-58) (SEQ ID NO: 16)] |  | 17.6 |
| NWTPQPMLYLKGAQG [NWTPQPMLYLKGAQG (SEQ ID NO: 36)] | 55 |  |
| NWTPQAMLYLKGPQG [NWTPQAMLYLKGPQG (SEQ ID NO: 39)] | 0.3 |  |
| PWTPQAMLYLKGAQG [PWTPQAMLYLKGAQG (SEQ ID NO: 33)] | 0.1 |  |
| NWPPQAMLYLKGAQG [NWPPQAMLYLKGAQG (SEQ ID NO: 34)] | 0.05 |  |
| NWTPQAMLYLKGAPG [NWTPQAMLYLKGAPG (SEQ ID NO: 40)] | 0.2 |  |
| NWTPQAMLYLKPAQG [NWTPQAMLYLKPAQG (SEQ ID NO: 38)] | 20 |  |
| NWTPQAMLYLKGA [NWTPQAMLYLKGA (SEQ ID NO: 18)] | 4.3 |  |
| NWTPQAMLYLK [NWTPQAMLYLK (SEQ ID NO: 20)] | 1.9 |  |
| NWTPQAMLYLKGAQGH [rat Neuropeptide Q (SEQ ID NO: 15)] |  | 5.06 |
| NWTPQAMLYLKGAQA [NWTPQAMLYLKGAQA (SEQ ID NO: 32)] | 2 |  |
| SPNPQLLTIPEAATILLASLQKSPEDEEKNFDQTRFLEDSLLNW [human pro Neuropeptide Q (73-116) (SEQ ID NO: 17)] |  | > 10000 |
| NWTPQAMAYLKGAQG [NWTPQAMAYLKGAQG (SEQ ID NO: 28)] | 0.8 |  |
| NWTPAAMLYLKGAQG [NWTPAAMLYLKGAQG (SEQ ID NO: 26)] | 12.5 |  |
| NWTPQAMLYL [NWTPQAMLYL (SEQ ID NO: 21)] | 14 |  |
| NWTPQAALYLKGAQG [NWTPQAALYLKGAQG (SEQ ID NO: 27)] | 3.4 |  |

Second part, the binder after the results:

| FLIPR EC50 [nM] | Aequorin EC50 [nM] | Binder |
| --- | --- | --- |
| 0.7 |  | AWTPQAMLYLKGAQG [AWTPQAMLYLKGAQG (SEQ ID NO: 23)] |
| 9.6 |  | NWTPQAMLYLAGAQG [NWTPQAMLYLAGAQG (SEQ ID NO: 29)] |
| 296 |  | NWTPQAMLYLPGAQG [NWTPQAMLYLPGAQG (SEQ ID NO: 37)] |
| 4.2 | 5.7 | NWTPQAMLYLKGAQG [human Neuropeptide Q-Glycine (SEQ ID NO: 14)] |
| 3.6 |  | NWTAQAMLYLKGAQG [NWTAQAMLYLKGAQG (SEQ ID NO: 25)] |
| 6.7 |  | NWTPQAMLYLKG [NWTPQAMLYLKG (SEQ ID NO: 19)] |
| 10.9 |  | NWAPQAMLYLKGAQG [NWAPQAMLYLKGAQG (SEQ ID NO: 24)] |
| 4.8 |  | WTPQAMLYLKGAQG [WTPQAMLYLKGAQG (SEQ ID NO: 22)] |
| 97 |  | NWTPPAMLYLKGAQG [NWTPPAMLYLKGAQG (SEQ ID NO: 35)] |
| 47 |  | NWTPQAMLYLKAAQG [NWTPQAMLYLKAAQG (SEQ ID NO: 30)] |
